Experimental data reported in patent US20260217854A1.

Molecular target: coil 2 domain of TMCC3 protein (UniProt Q9ULS5)
Assay: ELISA on TMCC3 domain proteins

B1: mouse anti-TMCC3 8D6 monoclonal antibody (antibody, V domains shown)
VH: EIQLQQSGGELVKPGASVKISCTASGYSFTGYNMNWVKQSHGKSPEWIGNINPYYGSTSYNQKFKGKATLTVDKSSSTAYMQLNSLTSEDSAVYYCARWLGLGYAMDYWGQGTSVTVSS
VL: DIVLTQSPASLVVSLGQGATISCRASKSVSPSGYSSMHWYQQKPGQPPKLLIYLASNLESGVPARFSGSGSGTDFTLNIHPVEEEDAATYYCQHSRELPWTFGGGTKLEIKR
For B1, which Kd is on record?
Its Kd is 0.01 nM.
